Here are results for 19 sequences from the DeepSol protein solubility set.

The data set is described as follows: soluble on expression in E. coli; label from the status in PepcDB or PDB records.
For the sequence “MSDRNCYKCQQPGHISRNCPNGESDGGRRGGGGGSTCYNCQETGHFSRDCPKGGSGGGQRGGGGGGGSCYNCGGRGHYSRDCPSARSEGGSGGYGGRGGEGRSFGGQKCYNCGRSGHISRECTESGSAEEKRCYQCQETGHISRDCPSQTN”, the “soluble on expression in E. coli” value is “soluble”. Turning to “MSDSPKNAPRITDEADVVLIGAGIMSSTLGAMLRQLEPSWTQIVFERLDGPAQESSSPWNNAGTGHSALCELNYTPEVKGKVEIAKAVGINEKFQVSRQFWSHLVEEGVLSDPKEFINPVPHVSFGQGADQVAYIKARYEALKDHPLFQGMTYADDEATFTEKLPLMAKGRDFSDPVAISWIDEGTDINYGAQTKQYLDAAEVEGTEIRYGHEVKSIKADGAKWIVTVKNVHTGDTKTIKANFVFVGAGGYALDLLRSAGIPQVKGFAGFPVSGLWLRCTNEELIEQHAAKVYGKASVGAPPMSVPHLDTRVIEGEKGLLFGPYGGWTPKFLKEGSYLDLFKSIRPDNIPSYLGVAAQEFDLTKYLVTEVLKDQDKRMDALREYMPEAQNGDWETIVAGQRVQVIKPAGFPKFGSLEFGTTLINNSEGTIAGLLGASPGASIAPSAMIELLERCFGDRMIEWGDKLKDMIPSYGKKLASEPALFEQQWARTQKTLKLEEALEHHHHHH”, the “soluble on expression in E. coli” value is given as “not soluble”.

On to “MSDSQEQLISSENTEVDKQAEEDRKLRRLNRRKALALERSPLPVPKLGRVLLSANSTIDLTNEDDDPSNKWFKKTFNAEKIPKLAKSPEEAKLFAVPRKISKNAPKSLLTSETLKKKLQASMSAKRRKEQEQRRKMYEEDNEHLKAGSDEEEEEDVVFKKKKGKKPVNEEEYKSEDDEDYEPENSGEEDSDEKNNGRADDEMSVNLLNDSFTYDVFNNVKRSGPGSTVSNFDSRSEADVVEKNGVVQLPTMTEITGGSNDILNLCPGSFGVSQSAGFPDTLQMLIEEDTTERKINLPQNSTSVSSDKPRLEESESEDEDDVGVKRRLPAVKNHRVLDSDEEDDVIEETLPSQDVFGSGTLEDSETIKEICEKSGEFTEKIETVLEEKTELKRVVLSDGEDSDEEAEEAEEEGDDEEEPEEDDIESENDEAETEGVEAPDPNFDDEDDELAILKRLQHQEYKQKIKKRTLFDDEASLSGDDVGSDLEDEEGMENVYEAEEGDADDVPDNDTIRRQNHKLLLKQENDKEQRELAKLQDRLLADGDLGGVETNRQFRFKLREEVQIQMGDDVDGNDGDGEDDEPEEDEQKKKERAEMIKFKYEHAEELMLLDEPKQGDDMFARAGKLFKKTEKTVIEFSEETMFKPRLSKPSLLSKTTLAVTFQEVLNGPGGAAKQMYVQSFEKPTPLSTGHISSPSSRLSTGKRLLKSPESSASAKRVRSSKLSSLE”, for which the “soluble on expression in E. coli” value was “not soluble”.

In the case of “MSDVAIVKEGWLHKRGEYIKTWRPRYFLLKNDGTFIGYKERPQDVDQREAPLNNFSVAQCQLMKTERPRPNTFIIRCLQWTTVIERTFHVETPEEREEWTTAIQTVADGLKKQEEEEMDFRSG”, the “soluble on expression in E. coli” value is listed as “soluble”.

As for “MSDVKGKSTSGRGLTPKQEKFCQLYIELGNASEAYRQSYDCSKMTTEVINVKASELLNKNGKITVRVEELRQAHQQRHNLTLDNIIADLQEYRDICMGRKPLTITTVVKNAQEGTAQSVNTECFVFEPTGANKALELLGKHLGMFTNKVDVTTDGKPLPTVINVTFSDEPA”, the “soluble on expression in E. coli” value was “not soluble”. For “MSDWSPMHEAAIHGHQLSLRNLISQGWAVNIITADHVSPLHEACLGGHLSCVKILLKHGAQVNGVTADWHTPLFNACVSGSWDCVNLLLQHGASVQPESDLASPIHEAARRGHVECVNSLIAYGGNIDHKISHLGTPLYLACENQQRACVKKLLESGADVNQGKGQDSPLHAVARTASEELACLLMDFGADTQAKNAEGKRPVELVPPESPLAQLFLEREGPPSLMQLCRLRIRKCFGIQQHHKITKLVLPEDLKQFLLHL”, the “soluble on expression in E. coli” value is “soluble”. With “MSDYQMFEVQVSQVEPLTEQVKRFTLVATDGKPLPAFTGGSHVIVQMSDGDNQYSNAYSLLSSPHDTSCYQIAVRLEENSRGGSRFLHQQVKVGDRLTISTPNNLFALIPSARKHLFIAGGIGITPFLSHMAELQHSDVDWQLHYCSRNPESCAFRDELVQHPQAEKVHLHHSSTGTRLELARLLADIEPGTHVYTCGPEALIEAVRSEAARLDIAADTLHFEQFAIEDKTGDAFTLVLARSGKEFVVPEEMTILQVIENNKAAKVECLCREGVCGTCETAILEGEADHRDQYFSDEERASQQSMLICSRAKGKRLVLDL”, the “soluble on expression in E. coli” value is reported as “soluble”. As for “MSEAQGQGKQSLVEMLKAMVQARASDIHLQAGAPPTVRIDGKLRPFGNRPLTPKEVEAIARALLTPEQLEELEYRKEMDFAYTIPGVARFRCNLLRQRGSFGLVMRVVSEVIPSFEALGLPREVMESLAAKERGLILVTGPTGSGKSTTLAALIDHINLHYAKNIITIEDPIEFLHKHKKSLVVQREVGLDTDSFYTGLKYALRQDPDVIMVGEMRDRETVEAALMAAQTGHLVLSTLHTLDAWRTINRIIDFFPLHEHRQVRVLLAESLLGILSQRLLPKADGQGRVLALEILIATPYVRELLKDEEKMPQIKEAMMEGSLYGMRTFDQHLVELYTEGLISLEDALSAATSPHEFRLLLTKATGQTY”, the entry is “soluble”. For “MSEEKIYDVIIIGAGPAGMTAAVYTSRANLSTLMLERGIPGGQMANTEDVENYPGYESILGPDLSNKMFEHAKKFGAEYAYGDVKEVIDGKEYKTIIAGKKEYKARAIIVASGAEYKKIGVPGETELGGRGVSYCAVCDGAFFKGKELVVIGGGDSAVEEGVFLTRFASKVTIVHRRDTLRAQKILQDRAFQNEKVDFIWNHTIKEINEANGKVGSVTLVDVNSGEEKEVKTDGVFVYIGMLPLSKPFVELGITNENGYLETNERMETKVPGIFAAGDVREKMLRQIVTATGDGSIAAQSAQHYVEELLEELKTVSEK”, the “soluble on expression in E. coli” value is “not soluble”. Then “MSEETIEKFEDNVEHQNQDQPVPEGMSKKQLRRQKYKVKWEEKKLVKRAAERIRKKEKRAALKESGDLSKLRKRKDFRTMAQSNSKQRIALDMSFDDLMIEKDQKRTVQQIGWCYTANRHSPDPFQFHVVGFDGPSRKIYDGNEHNLNQDIHLHQEKLENLFKPEEIVYLTSESENVLSDLDDTKVYVIGGIVDHNSQKGLCYRIAQEKGFGHAKLPLDEHLLMKSRRVLTINQVYEILVHYSVHKNWKDALLSIIPERKNAQLKEEVVEEKPESLEEIGKLDTESTDTATGSPKIN”, with “soluble”; and “MSEFLNENPDILEENQLPTRKEDSTKDLLLGGFSNEATLERRSLLLKIDHSLKSQVLQDIEVLDKLLSIRIPPELTSDEDSLPAESEDESVAGGGKEEEEPDLIDAQEIYDLIAHISDPEHPLSLGQLSVVNLEDIDVHDSGNQNEMAEVVIKITPTITHCSLATLIGLGIRVRLERSLPPRFRITILLKKGTHDSENQVNKQLNDKERVAAACENEQLLGVVSKMLVTCK”, with “soluble”. For the sequence “MSEFWKARNWQRKFLVTGRRCFHPMELFSEIKNRYFQLMFRIINECAEGKSKSEVLKIIDEGEFGQKVIGKNQKSFSDLVLNRCAPDENLNLLIEKDGMYYPSIMNSDESGNMAGNAAKKITRPPLPVRFSQIEKAWLKALLDKEEARMILSRETFDKLQKELAGIDTPIKDEYFEFTNKIKLPEIANQKAYEENFRLLLNAIIQEKPIRYNNIDKKGNMYNDRLALPVSIEYSMRDGRFRVSMYLLDENRPVMANVFTLSDIRIVDEDVGFDRETAKRLLLEQKYSEEPIILEVTDEKAAMERCFMCFSGMERTARSLGNNKYEIKLNYYLFEEENLIRNIISLGPYVKVISPQRIVDEVVARVKKAISLYNI”, the “soluble on expression in E. coli” value is listed as “not soluble”. As for “MSEISQLTPQPLWQFFDKICSIPHPSKHEEALAQYIIEWATTEGLDVRRDPTGNVFIKKPATPGMEDRKGVVLQAHIDMVPQKNEDTEHDFTKDPIQPYIDGEWVTAKGTTLGADNGMGMASCLAVLASKELKHGPLEVLLTIDEEAGMTGAFGLEAGWLEGDILLNTDSEQEGEVYMGCAGGADGAIKLDIEREALPSGYITRQITLKGLKGGHSGCDIHTGRGNANKLLGRFLAGHAQELDLRLVEFRGGSLRNAIPREAFATIAVPAENEAKLAELFTFYTNLLKDELGKVETDIVSFNETASAEQVLTKITQSRFIATLNACPNGVIRMSDDIEGVVETSLNVGVITTDENSITILCLIRSLMDSGRSMVEGMLSSVAELAGAQVTFSGTYPGWKPDADSEIMHVFRDVYEGIYGNKPNIMVIHAGLECGLFKKPYPEMDMISFGPTIKFPHSPDEKVKIDTVALYWEQMVAILENIPKKLEHHHHHH”, the entry is “soluble”. For “MSEKLQKVLARAGHGSRRELEALIRAGRVSVNGKVAVLGERLEDDNAVVRIDGHVVSVKAQEEVICRVLAYYKPEGELCTRHDPEGRRTVFDRLPKIRGSRWISVGRLDANTSGLLLFTTDGELANRLMHPSRQVEREYLVRVFGDVTEEKVRNLVRGVQLEDGMARFEDVMYAGGEGINHTFYVVINEGRNREVRRLWESQGTTVSRLKRVRYGDIFLDKKLPRGGWMELDLKQVNYLRELVELRPEKETVLNMAPDAATRKRERTRSQKIRRAVRRHEERISATPGRSGKAPARRKPGGESSTRNKVANQQQSSRKPRG”, the “soluble on expression in E. coli” value is “not soluble”. Turning to “MSELNLSPDKLTVLLMGGSFGAGNIKETLDELLDTDRDFQILVITGKNESLKEKIEKKLMSRYHDKNVCVLGYTDKMNDILASIDVLVSKPGGLTTTEALLKDVPMIVPYYIPGQEEENLDFLSNCGAALRTTKKYNLSILLKVLIDDPSRLEMLKRNIKSIRKSNSAQNIANLILNIISGLEHHHHHH”, the “soluble on expression in E. coli” value was “not soluble”. As for “MSELSGKGCEIIVPFEERLPVRDIEKSIIKKYRKNLWSKFMKAIRDYKLVEEGDKIAVAISGGKDSILMAKMFQELKKHGQVNFDVEFIAMDPGYHANIRQLLIDNCEYLNIPIHLFDSRIFEIADEIAKDYPCYMCARMRRGALYSKAEELGCNKLALGHHYDDVIETTMLNLLCAGNFKTMLPKLNSTNFEGIKIIRPLYYIREEHIIRFIQNSGIWPLNCAC”, the entry is “not soluble”; as for “MSELVEMEVHGITLDPTTQMPIVVLKGKEDENLILPIWIGAFEANGIAMKLQGVEPPRPMTYELLKNIITEMGGNVEKVVINDLKDSTYYAEIYINQGNNTLVIDSRPSDAINLALRFGAPIYVAEHVLEQSKLPEPEEDEEKKKLREWLENIKPEDFEIGGEKSLEHHHHHH”, “soluble”; as for “MSEPADLIGEIDALGIKLQEARASITRRFIGQERVVDLTLTALLCGGHALLIGLPGLGKTRLVETLSTVMGLHGNRIQFTPDLMPADILGSEVLDTAEDGSRRFRFIPGPIFCQLLMADEINRASPRTQSALLQAMQEKTVTVAGENRPLGTPFHVLATQNPIEQEGTYPLPEAQLDRFLVQIDVDYPDRATEREILLATTGVEEAEAHQVMSQADLLGAQVLLRRMPVGESVVEMILDLVRAFRPDEPGVSDRVRDTVAWGPGPRAAQALMLTVRARALLQGRLAPSPEDVLDMARPVLSHRMALNFAARARGDTLAGLIDETAASLTRTEAAALEHHHHHH”, “not soluble”. Consider “MSEPLDLNQLAQKIKQWGLELGFQQVGITDTDLSESEPKLQAWLDKQYHGEMDWMARHGMLRARPHELLPGTLRVISVRMNYLPANAAFASTLKNPKLGYVSRYALGRDYHKLLRNRLKKLGEMIQQHCVSLNFRPFVDSAPILERPLAEKAGLGWTGKHSLILNREAGSFFFLGELLVDIPLPVDQPVEEGCGKCVACMTICPTGAIVEPYTVDARRCISYLTIELEGAIPEELRPLMGNRIYGCDDCQLICPWNRYSQLTTEEDFSPRKPLHAPELIELFAWSEEKFLKVTEGSAIRRIGHLRWLRNIAVALGNAPWDETILTALESRKGEHPLLDEHIAWAIAQQIERRNACIVEVQLPKKQRLVRVIEKGLPRDA”, for which the “soluble on expression in E. coli” value is “soluble”.
